Measurements published in patent US20130280276A1 (Daiichi Sankyo, published 2013).

B1: MOR09281 (antibody, human IgG2, lambda, V domains shown)
VH: QVQLVESGGGLVQPGGSLRLSCAASGFTFSNYWMSWVRQAPGKGLEWVSLISYSGSTTYYADSVKGRFTISRDNSKNTLYLQMNSLRAEDTAVYYCARDTPIGMDFWGQGTLVTVSS
VL: DIELTQPPSVSVAPGQIARISCSGDNLGSYYAYWYQQKPGQAPVLVIYGDNDRPSGIPERFSGSNSGNTATLTISGTQAEDEADYYCSSYDIVQPYVFGGGTKLTVLG
B2: MOR09892 (antibody, human IgG2, lambda, V domains shown)
VH: QVQLVESGGGLVQPGGSLRLSCAASGFTFSSYAMHWVRQAPGKGLEWVSYISYSGSNTYYADSVKGRFTISRDNSKNTLYLQMNSLRAEDTAVYYCARGWGGFDYWGQGTLVTVSS
VL: DIELTQPPSVSVAPGQTARISCSGDNLPNRYVHWYQQKPGQAPVLVIYDDNNRPSGIPERFSGSNSGNTATLTISGTQAEDEADYYCQSRDLHYSPVFGGGTKLTVLG
B3: MOR10110 (antibody, human IgG2, lambda, V domains shown)
VH: QVQLVESGGGLVQPGGSLRLSCAASGFTFTNYAMNWVRQAPGKGLEWVSYISYSSSNTYYADSVKGRFTISRDNSKNTLYLQMNSLRAEDTAVYYCARGAGLGYDVWGQGTLVTVSS
VL: DIELTQPPSVSVAPGQTARISCSGDNLRSKYVYWYQQKPGQAPVLVIYDTNDRPSGIPERFSGSNSGNTATLTISGTQAEDEADYYCQTYDMTSQDVFGGGTKLTVLG
B4: MOR09898 (antibody, human IgG2, lambda, V domains shown)
VH: QVQLVESGGGLVQPGGSLRLSCAASGFTFSNYWMTWVRQAPGKGLEWVSFISYSGSTTYYADSVKGRFTISRDNSKNTLYLQMNSLRAEDTAVYYCAREGTSSMFDVWGQGTLVTVSS
VL: DIELTQPPSVSVAPGQTARISCSGDALRSYYASWYQQKPGQAPVLVIYDDNKRPSGIPERFSGSNSGNTATLTISGTQAEDEADYYCASFTYMSDFVFGGGTKLTVLG

Each binder was assayed against mouse Siglec-15 (mouse) (assay: cell-based or functional assay).

TRAP activity of mouse osteoclasts formed (RANKL-stimulated mouse bone marrow nonadherent cells), ≥ 13 ng/mL:
B1
B2
B3
B4
